Reference: patent US20230279079A1 (CHANG GUNG MEMORIAL HOSPITAL LINKOU, published 2023)
Residue numbers refer to the chain shown, from its start.

B1: EW 9C (antibody, V domains shown)
VH: EVQLVESGGGVVQPGASLRLSCVASGFTFNNFGFHWVRQAPGKGLEWLAVISYEGSKTYYAESLKGRFTISRDTSKNTVYLQMNSLRAEDTAVYYCARATSIFWFGEGRNWFDPWGQGTMVTVSS
VL: EIVLTQSPGTVSLSAGERATLSCRASQNVGTDLAWYVQRPGQAPRLLIYDTSNKATGIPARFSGRGSGTDFTLTIDSLEPEDFAVYYCQQRSNWPLTFGGGTKVEIR
B2: EW 9C-1 (antibody, V domains shown)
VH: B1 VH with T119A, M120L
VL: B1 VL with L4M, K54R, R107K
B3: FD 5D (antibody, V domains shown)
VH: EVQLVESGGGLVQPGGSLRLSCAASGFTFSSYSMNWVRQAPGKGLEWVSYISSSSSTIYYADPVKGRFTISRDNAKNSLYLQMNSLRAEDTAVYYCASPGGITAAGTSVLFGYYGMDVWGQGTMVTVSS
VL: not shown
B4: FJ 4E (antibody, V domains shown)
VH: QVQLVESGPGLVKPSETLSLTCSVSGGSISSGTYYWSWIRQQPGKGLEWIGYIYNTGRPYYNPFLKSRITISVDSSKNQFSLKLTSVTAADTAVYYCARDEYDSSDSGIQGHWFDPWGQGTLVTVSS
VL: AIRMTQSPSSLSASVGDRVTITCRTSQNINSFLNWYQQKPGKGPNLLIYGAFTLQSGVPSRFSGSGSGTDFTLTISSLQPEDFATYFCQQSYSTPWTFGQGTKVEIK
B5: FD 7C (antibody, V domains shown)
VH: QLQLQESGPGLVKPSETLSLTCTVSGGSISSYYWSWIRQPPGKGLEWIGYIYYSGSTNYNPSLKSRVTISVDTSKNQFSLKLSSVTAADTAVYYCARDYRFGELFGRFAWFDPWGQGTLVTVSS
VL: not shown
B6: FG 7A (antibody, V domains shown)
VH: EVQLVESGGGVVQPGRSLRLSCAASGFTFSSYAMHWVRQAPGKGLEWVAVISYDGSNKYYADSVKGRFTISRDNSKNTLYLQMNSLRAEDTAVYYCARSHSGSYRASLDYWGQGTTVTVSS
VL: not shown
B7: FN 2C (antibody, V domains shown)
VH: EVQLLESGGGVVQPGRSLRLSCAASGFNFNNYGMHWVRQAPGKGLEWVATISYEGSKKFYVDSVKGRFTISKDNSKNTLYLQMNSLRVDDTAFYYCAKRREIFWLGEPPLSDAFDFWGQGTMVTVSS
VL: QSVLTQPPSVSGAPGQRVTISCTGSGSNIGAGYDVHWYQFLPGTAPQLLIYGNNNRPSGVPDRFSGSKSGTSASLAITGLQAEDEADYYCQSYDSSLSGSVFGGGTKLTVL
B8: FD 10A (antibody, V domains shown)
VH: EVQLVESGGGLVQPGGSLRLSCAASGFTFSSYWMHWVRQAPGKGLVWVSRINSDGSSTSYADSVKGRFTISRDNAKNTLYLQMNSLRAEDTAVYYCANMAFDIWGQGTMVTVSS
VL: not shown
B9: FI 3A (antibody, V domains shown)
VH: EVQLLESGGGLIQPGGSLRLSCAASGFTVSSNYMSWVRQAPGKGLEWVSVIYSGGSTYYADSVKGRFTISRDNSKNTLYLQMNSLRAEDTAVYYCARDHVRPGMNIWGQGTMVTVSS
VL: not shown
notes: also called FI 03A
B10: FD 11E (antibody, V domains shown)
VH: EVQLVESGGGLVKPGGSLRLSCAASGFTFSSYSMNWVRQAPGKGLEWVSSISSSSSYIYYADSVKGRFTISRDNAKNSLYLQMNSLRAEDTAVYYCASLAAAGPETYYYYGMDVWGQGTMVTVSS
VL: not shown
B11: FD 11A (antibody, V domains shown)
VH: EVQLVESGGGVVQPGRSLRLSCAASGFTFSSYGMHWVRQAPGKGLEWVAVIWYDGSNKYYADSVKGRFTISRDNSKNTLYLQMNSLRAEDTAVYYCAKGPDILTGYYNYYYYGMDVWGQGTMVTVSS
VL: QSVLTQPPSVSGAPGQRVTISCTGSSSNIGAGYDVHWYQQLPGTAPKLLIYGNSNRPSGVPDRFSGSKSGTSASLAITGLQAEDEADYYCQSYDSSLSGFYVVFGGGTKLTVL
B12: FM 1A (antibody, V domains shown)
VH: EVQLLESGGGVVQPGRSLRLSCAASGFTFSSYGMHWVRQAPGKGLEWVAVIWYDGSNKYYADSVKGRFTISRDNSKNTLYLQMNSLRAEDTAVYYCAREGAVGATRGFDYWGQGTLVTVSS
VL: SYELTQPPSVSVAPGQTARITCGGNNIGSKSVHWYQQKPGQAPVLVVYDDSDRPSGIPERFSGSNSGNTATLTISRVEAGDEADYYCQVWDSSSDQGVFGGGTKLTVL
B13: FB 9D (antibody, V domains shown)
VH: QVQLVESGAEVKKPGESLKISCQGSGYRFNSYWIAWVRQMPGKGLEWMGSIFPTDSDVRYNPSFQGQVTISADKSISFAYLQWSSLKASDTAIYYCARHWASMVRGVIRASHYYGMDVWGQGTTVTVSS
VL: QPVLTQPPSASGSPGQSVTISCSGASSDIGKYNYVSWYQQLPGKAPKLLIYEVTKRPSGVPDRFSGSKSGNTASLTVSGLQADDEADYYCSSYAFGGSDTRVFGGGTKLTVL
B14: FB 1E (antibody, V domains shown)
VH: B13 VH with Q1E, V58I, F78I
VL: B13 VL with P2S, K31D, T100I, T110A
B15: EY 6A (antibody, V domains shown)
VH: EVQLVESGGGVVQPGRSLRLSCAASAFTFSSYDMHWVRQAPGKGLEWVAVISYDGSNKYYADSVKGRFTISRDNSKNTLYLQMNSLRAEDTAVYYCAKDGGKLWVYYFDYWGQGTTVTVSS
VL: not shown
B16: EW 4C (antibody, V domains shown)
VH: EVQLVESGPGLVKPSETLSLTCSVSADSFKKGYYWGWIRQPPGKGLESIVNSFDSGTTRYNPSLWGRATVSDMSKWHFSLKLTSVTAADTAVYYCVRGTYGSGLHWGQGILVTVSS
VL: QTVVTQEPSLTVSPGGTVTLTCGSSVGTVASGHYPYWVQQKPGQAPRTLIYDTDNKQSWTPARFSGSLLGGKAALTLSGAQPEDEADYYCFLSHNDAWVFGGGTKLTVL

How the values were obtained:
SARS spike S1 subunit = target: T1, SARS spike S1 subunit (severe acute respiratory syndrome …, UniProt P59594 14-667); assay: ELISA
T1 construct: domain: S1 subunit

[1] = target: T2, SARS-CoV-2 spike receptor binding domain (RBD) (SARS-CoV-2, UniProt P0DTC2 319-541); assay: ELISA
T2 construct: also called SARS-CoV-2 RBD

[2] = target: T3, Human coronavirus OC43 spike extracellular domain (human coronavirus OC43, UniProt P36334 14-1297); assay: ELISA
T3 construct: extracellular domain

[3] = target: T4, MERS spike extracellular domain (Middle East respiratory syndrome …, UniProt K9N5Q8 18-1296); assay: ELISA
T4 construct: extracellular domain

[4] = target: T5, SARS-CoV-2 spike S1 subunit (SARS-CoV-2, UniProt P0DTC2 16-685); assay: ELISA
T5 construct: domain: S1 subunit

[5] = target: T6, spike glycoprotein of wild type SARS-CoV-2 virus (SARS-CoV-2, UniProt P0DTC2 14-1273); assay: cell-based or functional assay
[6] = target: T6, spike glycoprotein of wild type …; assay: cell-based or functional assay; remark: listed apart in the source
[7] = target: T7, SARS-CoV-2 spike S2 subunit (SARS-CoV-2, UniProt P0DTC2 686-1213); assay: ELISA
T7 construct: domain: S2 subunit

[8] = target: T8, SARS-CoV-2 nucleocapsid protein (SARS-CoV-2, UniProt P0DTC9 1-419); assay: ELISA on recombinant protein
T8 construct: also called N protein

[9] = target: T9, SARS-CoV-2 nucleocapsid in fixed and permeabilised SARS-CoV-2 infected cells (SARS-CoV-2, UniProt P0DTC9 1-419); assay: immunofluorescence assay
T9 construct: whole, on cells; also called N antigen

Binder	binding result (SARS spike S1 subunit)	binding result [1]	binding result [2]	binding result [3]	binding result [4]	Ct value of culture supernatant, after 5 days of incubation (virus control 13.0) [5] [Ct]	fold reduction of virus [5] [fold]	Neutralization by PRNT EC50 [6] [nM]	binding result [7]	Neutralization by FMNT EC50 [6] [nM]	binding result [8]	binding result [9]
B1	no binding	no binding	binds	binds	no binding	22.7	~832	133	–	–	–	–
B2	no binding	no binding	binds	binds	no binding	–	–	133	–	–	–	–
B3	no binding	–	no binding	no binding	–	18.8	~56	133	no binding	–	–	–
B4	binds	no binding	–	binds	no binding	–	–	75.3	–	–	–	–
B5	no binding	no binding	no binding	no binding	–	–	–	–	no binding	35.6	–	–
B6	no binding	no binding	no binding	no binding	no binding	–	–	133	–	–	–	–
B7	no binding	no binding	–	no binding	no binding	–	–	–	–	–	–	–
B8	binds	no binding	binds	binds	no binding	–	–	111	–	–	–	–
B9	–	–	–	–	–	–	~10100	8.67	no binding	0.51	–	–
B10	no binding	no binding	no binding	no binding	–	–	–	70	no binding	–	–	–
B11	–	–	–	–	–	23	~1024	0.05	no binding	3.68	–	–
B12	no binding	no binding	no binding	no binding	no binding	–	–	133	–	–	–	–
B13	no binding	no binding	–	binds	no binding	–	–	–	–	–	–	–
B14	no binding	no binding	–	binds	no binding	–	–	36	–	–	–	–
B15	–	–	–	–	–	22.7	–	133	no binding	22.5	–	–
B16	–	–	–	–	–	–	–	–	–	–	binds	binds
